Test results taken from article PMC8423306, “Coordinated action of multiple transporters in the acquisition of essential cationic amino acids by the intracellular parasite Toxoplasma gondii” (PLoS Pathogens, 2021).

Experiments:
[1] = target: T1, TgApiAT6-1 (Toxoplasma gondii, UniProt A0A125YQS6); test: inhibition of […]Arg uptake at […] and trans-stimulation of Arg uptake in Xenopus oocytes; assay type: cell-based
T1 construct: gene ApiAT6-1; HA-tagged TgApiAT6-1 open reading frame expressed in Xenopus laevis oocytes
T1 sequence (A0A125YQS6 1-566): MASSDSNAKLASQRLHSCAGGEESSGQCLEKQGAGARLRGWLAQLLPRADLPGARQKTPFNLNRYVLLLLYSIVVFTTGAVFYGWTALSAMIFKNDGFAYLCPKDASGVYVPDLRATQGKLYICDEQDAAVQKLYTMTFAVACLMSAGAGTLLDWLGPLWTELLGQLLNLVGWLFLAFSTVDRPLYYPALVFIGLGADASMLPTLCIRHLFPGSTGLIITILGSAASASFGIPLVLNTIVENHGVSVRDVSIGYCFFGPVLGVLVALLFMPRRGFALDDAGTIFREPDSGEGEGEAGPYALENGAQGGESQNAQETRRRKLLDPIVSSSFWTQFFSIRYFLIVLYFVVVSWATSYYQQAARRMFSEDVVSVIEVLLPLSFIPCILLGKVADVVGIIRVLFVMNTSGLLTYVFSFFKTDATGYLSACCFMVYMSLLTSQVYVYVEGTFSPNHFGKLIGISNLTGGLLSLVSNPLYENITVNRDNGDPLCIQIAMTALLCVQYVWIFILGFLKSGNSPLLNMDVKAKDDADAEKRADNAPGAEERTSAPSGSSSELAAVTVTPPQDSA

[2] = target: T1, TgApiAT6-1; test: radiolabelled uptake in Xenopus oocytes; inhibition of Arg uptake at […]; trans-stimulation; assay type: cell-based
[3] = target: T1, TgApiAT6-1; test: inhibition of […]Arg uptake at […] and trans-stimulation of Arg efflux in Xenopus oocytes; assay type: cell-based
[4] = substrate: N=C(N)NCCC[C@H](N)C(=O)O; test: cells, lysate or membranes; assay type: cell-based, Toxoplasma gondii; conditions: same binding site as Lys
[5] = substrate: NCCCC[C@H](N)C(=O)O; test: cells, lysate or membranes; assay type: cell-based, Toxoplasma gondii; conditions: same binding site as Arg; competitive with Arg

For `N[C@@H](Cc1ccccc1)C(=O)O` [Phe, phenylalanine], the “inhibition of [14C]Arg uptake at 10 mM and trans-stimulation of Arg uptake in Xe” value [1] was “numerous neutral amino acids including Met, Leu, Phe and His partially inhibited Arg uptake”.

With `CC(C)C[C@H](N)C(=O)O` [Leu, leucine] the “radiolabelled uptake in Xenopus oocytes; inhibition of Arg uptake at 10 mM; tran” value [2] was “TgApiAT6-1 also mediated uptake of Arg and some neutral amino acids including Met and Leu”.

In the case of `N[C@@H](Cc1c[nH]cn1)C(=O)O` [His, histidine], the “inhibition of [14C]Arg uptake at 10 mM and trans-stimulation of Arg efflux in Xe” value [3] is reported as “numerous neutral amino acids including Met, Leu, Phe and His partially inhibited Arg uptake”.

`CSCC[C@H](N)C(=O)O` [Met, methionine] was tested, and the “radiolabelled uptake in Xenopus oocytes; inhibition of Arg uptake at 10 mM; tran” value [2] was “TgApiAT6-1 also mediated uptake of Arg and some neutral amino acids including Met and Leu”.

B1: TgApiAT6-1 (Toxoplasma gondii ME49) (protein)
chain: MASSDSNAKLASQRLHSCAGGEESSGQCLEKQGAGARLRGWLAQLLPRADLPGARQKTPFNLNRYVLLLLYSIVVFTTGAVFYGWTALSAMIFKNDGFAYLCPKDASGVYVPDLRATQGKLYICDEQDAAVQKLYTMTFAVACLMSAGAGTLLDWLGPLWTELLGQLLNLVGWLFLAFSTVDRPLYYPALVFIGLGADASMLPTLCIRHLFPGSTGLIITILGSAASASFGIPLVLNTIVENHGVSVRDVSIGYCFFGPVLGVLVALLFMPRRGFALDDAGTIFREPDSGEGEGEAGPYALENGAQGGESQNAQETRRRKLLDPIVSSSFWTQFFSIRYFLIVLYFVVVSWATSYYQQAARRMFSEDVVSVIEVLLPLSFIPCILLGKVADVVGIIRVLFVMNTSGLLTYVFSFFKTDATGYLSACCFMVYMSLLTSQVYVYVEGTFSPNHFGKLIGISNLTGGLLSLVSNPLYENITVNRDNGDPLCIQIAMTALLCVQYVWIFILGFLKSGNSPLLNMDVKAKDDADAEKRADNAPGAEERTSAPSGSSSELAAVTVTPPQDSA
notes: HA-tagged TgApiAT6-1 open reading frame expressed in Xenopus laevis oocytes
For B1, the K0.5 [4] was 748 µM, the kcat [4] was 0.28 ± 0.1 s⁻¹ and the kcat/Km [4] was 379 M⁻¹ s⁻¹. It also gave a K0.5 [5] of 22.8 µM, a kcat [5] of 0.042 ± 0.004 s⁻¹ and a kcat/Km [5] of 1840 M⁻¹ s⁻¹.
